B1: clone 50 (ssRNA)
RNA: GGGAGGACGAUGCGGGUGGAGUGGAGGUAUAACGGCCGGUAGCGCAUCCCACUCGGGUCUGCGGUAGACGACUCGCCCGA
modifications: 2'-NH2 C and U

How the values were obtained:
Complement C5 = Complement C5 (Homo sapiens, UniProt P01031;P01031 P01031:19-673,P01031:678-1676); test: minimal structure from boundary analysis; called 38mer in text; conditions: tags: Quidel
Experimental: A secondary structure for an inhibitory C5 Nucleic Acid Ligand as determined by current art (Green et al. (1995) Chem & Biol. 2:683) is shown in FIG. 3 (SEQ ID NO:75). The smallest structure which would bind C5 is determined by: a) radiolabeling the C5 Nucleic Acid Ligand at both the 3' and the 5' end; b) treating the labeled Nucleic Acid Ligand by partial base-hydrolyzed to split a portion of the bonds between nucleotides; c) incubating the partially hydrolyzed Nucleic Acid Ligand with C5 protein and then eluting the bound Nucleic Acid Ligand; and d) analyzing the eluted Nucleic Acid Ligand on gels. In this procedure, the Nucleic Acid Ligand initially binds to C5 as bases are removed from the Nucleic Acid Ligand. When an essential base is removed, the Nucleic Acid Ligand is no longer able to bind. This first essential base determines the boundary of the minimal Nucleic Acid Ligand structure. For a human C5 Nucleic Acid Ligand the smallest binding structure is believed to comprise the sequence with proposed base-pairing pattern shown in FIG. 3.

Complement C1q = Complement C1q (Homo sapiens, UniProt P02745;P02746;P02747 P02745:23-245,P02746:28-253,P02747:29-245); test: filter; MgPBS, 37 C; still binds C1q on immune complexes; competed by SAP, beta-amyloid, CRP and A-chain 14-26 peptide; conditions: tags: Quidel; chain copies: 6; label: 32P
Complement C1q, sequence (P02745 23-245, chain 1 of 3): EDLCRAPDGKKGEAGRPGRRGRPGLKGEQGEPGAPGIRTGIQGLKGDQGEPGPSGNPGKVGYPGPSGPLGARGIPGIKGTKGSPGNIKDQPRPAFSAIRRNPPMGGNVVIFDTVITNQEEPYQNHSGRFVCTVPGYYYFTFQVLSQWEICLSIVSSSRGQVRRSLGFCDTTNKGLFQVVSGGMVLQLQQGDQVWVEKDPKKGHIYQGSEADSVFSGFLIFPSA
Complement C1q, sequence (P02746 28-253, chain 2 of 3): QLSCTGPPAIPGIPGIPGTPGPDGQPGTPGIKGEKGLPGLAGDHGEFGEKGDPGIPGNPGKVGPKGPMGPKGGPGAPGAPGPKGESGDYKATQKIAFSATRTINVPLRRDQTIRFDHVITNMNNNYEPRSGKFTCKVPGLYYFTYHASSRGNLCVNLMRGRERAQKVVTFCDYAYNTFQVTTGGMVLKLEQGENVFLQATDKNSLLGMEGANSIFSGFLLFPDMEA
Complement C1q, sequence (P02747 29-245, chain 3 of 3): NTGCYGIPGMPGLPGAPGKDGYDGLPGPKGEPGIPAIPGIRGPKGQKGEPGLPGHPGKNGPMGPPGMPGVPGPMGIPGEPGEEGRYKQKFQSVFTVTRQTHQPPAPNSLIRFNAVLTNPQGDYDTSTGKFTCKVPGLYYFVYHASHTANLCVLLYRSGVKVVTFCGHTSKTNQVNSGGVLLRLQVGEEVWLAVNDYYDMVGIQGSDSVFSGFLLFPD
Experimental: Individual cloned DNA was T7 transcribed with α-[^32P]-ATP and the full length [^32P]-2'-NH_2-RNA or 2'-F-RNA was gel-purified (as above). RNA was suspended at approximately 5,000 cpm per 30 µl sample (<10 pM), and aliquots were incubated with various concentrations of C1q, C3 or C5 in MgPBS for 10 minutes at 37° C. Samples were then filtered through nitrocellulose, the filters washed with buffer and dried under an infrared lamp, and counted with addition of scintillation fluid (Ecoscint A, National Diagnostics, Atlanta, Ga.). A background sample of RNA alone was run in parallel. […] Filters were washed and counted.
RNA ligand binding to C1q was also measured in the presence of immune-complexes, which would block the binding of ligands to C1q head-groups. Immune complexes (IC) were formed by mixing 620 µg BSA at equivalence with 1 ml of rabbit anti-BSA (Sigma, St. Louis, Mo.) plus PEG 8000 added to 1% final concentration, and then the samples were incubated overnight at 4° C. The IC were pelleted by microfugation at 12,000 rpm for 10 minutes, washed five times with PBS, and suspended in 1 ml of MgPBS. […] Samples were incubated for 30 minutes at room temperature, microfuged, and the pellets and supernatants counted.

Complement C5, sequence (P01031 19-673, chain 1 of 2): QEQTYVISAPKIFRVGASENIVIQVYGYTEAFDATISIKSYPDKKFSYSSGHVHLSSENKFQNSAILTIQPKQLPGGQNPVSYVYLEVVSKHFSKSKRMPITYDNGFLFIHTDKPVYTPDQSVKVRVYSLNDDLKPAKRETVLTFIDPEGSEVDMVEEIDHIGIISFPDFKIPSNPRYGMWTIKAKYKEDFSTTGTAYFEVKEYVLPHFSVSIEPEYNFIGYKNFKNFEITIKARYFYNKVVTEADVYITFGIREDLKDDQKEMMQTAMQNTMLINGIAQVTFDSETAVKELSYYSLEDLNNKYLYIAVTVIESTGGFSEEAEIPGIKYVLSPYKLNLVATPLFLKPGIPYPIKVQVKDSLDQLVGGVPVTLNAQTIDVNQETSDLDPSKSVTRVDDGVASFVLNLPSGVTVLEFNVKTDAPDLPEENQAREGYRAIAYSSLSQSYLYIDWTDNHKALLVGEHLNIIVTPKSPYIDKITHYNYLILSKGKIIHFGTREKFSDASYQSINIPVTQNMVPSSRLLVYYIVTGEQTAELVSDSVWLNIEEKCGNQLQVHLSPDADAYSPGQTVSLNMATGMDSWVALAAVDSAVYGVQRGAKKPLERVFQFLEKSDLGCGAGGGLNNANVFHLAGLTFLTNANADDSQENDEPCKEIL
Complement C5, sequence (P01031 678-1676, chain 2 of 2): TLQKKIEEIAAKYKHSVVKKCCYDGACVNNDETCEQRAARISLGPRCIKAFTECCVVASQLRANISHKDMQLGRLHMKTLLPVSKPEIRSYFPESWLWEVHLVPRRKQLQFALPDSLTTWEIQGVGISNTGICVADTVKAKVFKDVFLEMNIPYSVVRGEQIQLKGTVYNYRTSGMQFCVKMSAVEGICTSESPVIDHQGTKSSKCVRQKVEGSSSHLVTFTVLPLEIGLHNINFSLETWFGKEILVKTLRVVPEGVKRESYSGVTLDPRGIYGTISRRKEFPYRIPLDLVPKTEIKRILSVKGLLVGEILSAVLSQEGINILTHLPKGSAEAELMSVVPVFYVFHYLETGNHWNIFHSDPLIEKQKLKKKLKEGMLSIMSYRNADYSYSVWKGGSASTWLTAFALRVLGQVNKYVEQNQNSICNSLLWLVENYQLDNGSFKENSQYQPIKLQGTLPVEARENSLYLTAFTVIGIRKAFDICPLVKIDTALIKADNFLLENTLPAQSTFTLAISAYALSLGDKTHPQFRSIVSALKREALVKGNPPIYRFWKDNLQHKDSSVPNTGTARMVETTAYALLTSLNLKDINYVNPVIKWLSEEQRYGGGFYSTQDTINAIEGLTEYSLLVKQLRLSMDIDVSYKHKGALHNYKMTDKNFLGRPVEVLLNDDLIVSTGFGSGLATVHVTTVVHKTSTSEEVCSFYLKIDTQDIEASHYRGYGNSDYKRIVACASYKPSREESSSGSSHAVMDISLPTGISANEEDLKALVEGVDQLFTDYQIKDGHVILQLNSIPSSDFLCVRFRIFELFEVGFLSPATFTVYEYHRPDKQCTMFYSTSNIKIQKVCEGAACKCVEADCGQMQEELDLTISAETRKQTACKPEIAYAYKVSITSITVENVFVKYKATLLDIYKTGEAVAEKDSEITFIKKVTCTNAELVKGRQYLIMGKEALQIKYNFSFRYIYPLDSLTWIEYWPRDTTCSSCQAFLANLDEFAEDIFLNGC

Binder	binding result (Complement C5)	Kd (Complement C1q) [nM]
GACGAUGCGGUCUCAUGCGUCGAGUGUGAGUUUACCUUCGUC (ssRNA, 2'-F C and U) [truncated C5 ligand (FIG. 3)]	binds	–
B1	–	0.979

Reference: patent publication US6140490, “High affinity nucleic acid ligands of complement system proteins” (NeXstar Pharmaceuticals, Inc.)
